Measured values from patent US20240084023A1 (NGM BIOPHARMACEUTICALS, published 2024).

Key:
Test in all cases: flow cytometry on transfected 293XP cells
[1] = biological target: T1, GCGR extracellular domain alanine mutant F33A (human, UniProt P47871 26-136, limits assumed)
T1 construct: expressed in 293XP cells
T1 chain: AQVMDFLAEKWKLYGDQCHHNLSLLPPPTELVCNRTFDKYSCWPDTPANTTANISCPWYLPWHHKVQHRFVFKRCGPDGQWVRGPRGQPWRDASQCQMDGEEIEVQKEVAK
Description: (§1) To assist in gathering information on the GCGR epitope that the 6B5 binning group bound to, “alanine scanning mutagenesis” was undertaken. These alanine scanning mutagenesis platform is a technique used for mapping both linear and conformational antigen epitopes by evaluating the effects of point mutations across a target protein. Single residues in a target protein are replaced by alanine one at a time to construct a mutant library. Each variant is assayed for its ability to bind to an antibody of interest. […] Amino acids across the extracellular domain of GCGR were mutated to alanine and the anti-GCGR antibody Hz6B5 was tested for binding to the alanine mutants.
(§2) The wild-type GCGR extracellular domain and the alanine mutants were each transfected into 293XP cells and incubated for 24 hours. Antibody Hz6B5 was incubated with the transfected cells for 30 minutes at 4° C. After washing with PBS/1% BSA/0.1% azide, the cells were incubated with a labeled anti-mouse Fc antibody (Jackson Immunoresearch) for 30 minutes at 4° C. After washing with PBS/1% BSA/0.1% azide, the cells were analyzed using a flow cytometer BD (FACSCalibur instrument) and cytometric analytical software (FlowJo). A serum sample from a mouse immunized with human GCGR was used as positive control to confirm expression of the alanine mutants.

[2] = biological target: T2, GCGR extracellular domain alanine mutant R94A (human, UniProt P47871 26-136, limits assumed)
T2 construct: expressed in 293XP cells
T2 chain: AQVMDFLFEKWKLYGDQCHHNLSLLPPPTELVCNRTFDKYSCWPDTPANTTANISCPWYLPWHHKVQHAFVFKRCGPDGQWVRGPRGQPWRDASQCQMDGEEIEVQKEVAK
Description: as §1, §2

[3] = biological target: T3, GCGR extracellular domain alanine mutant H44A (human, UniProt P47871 26-136, limits assumed)
T3 construct: expressed in 293XP cells
T3 chain: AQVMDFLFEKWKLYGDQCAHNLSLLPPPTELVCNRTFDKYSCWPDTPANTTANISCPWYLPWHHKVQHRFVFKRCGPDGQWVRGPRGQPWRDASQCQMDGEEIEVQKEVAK
Description: as §1, §2

[4] = biological target: T4, GCGR extracellular domain alanine mutant W106A (human, UniProt P47871 26-136, limits assumed)
T4 construct: expressed in 293XP cells
T4 chain: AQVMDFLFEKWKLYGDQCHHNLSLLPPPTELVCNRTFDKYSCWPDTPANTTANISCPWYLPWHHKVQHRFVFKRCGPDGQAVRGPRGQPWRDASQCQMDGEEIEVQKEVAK
Description: as §1, §2

[5] = biological target: T5, GCGR extracellular domain alanine mutant R116A (human, UniProt P47871 26-136, limits assumed)
T5 construct: expressed in 293XP cells
T5 chain: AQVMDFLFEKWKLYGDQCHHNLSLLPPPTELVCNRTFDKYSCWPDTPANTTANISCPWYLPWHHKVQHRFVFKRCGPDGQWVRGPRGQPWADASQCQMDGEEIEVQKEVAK
Description: as §1, §2

[6] = biological target: T6, GCGR extracellular domain alanine mutant Y39A (human, UniProt P47871 26-136, limits assumed)
T6 construct: expressed in 293XP cells
T6 chain: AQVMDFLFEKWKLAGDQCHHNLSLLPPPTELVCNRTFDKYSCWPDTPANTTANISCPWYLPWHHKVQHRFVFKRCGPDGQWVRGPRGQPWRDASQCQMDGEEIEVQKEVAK
Description: as §1, §2

[7] = biological target: T7, GCGR extracellular domain alanine mutant D41A (human, UniProt P47871 26-136, limits assumed)
T7 construct: expressed in 293XP cells
T7 chain: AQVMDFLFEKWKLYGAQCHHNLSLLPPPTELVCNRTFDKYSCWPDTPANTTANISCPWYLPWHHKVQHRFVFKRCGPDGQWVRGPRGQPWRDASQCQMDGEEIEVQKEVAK
Description: as §1, §2

[8] = biological target: T8, GCGR extracellular domain alanine mutant L85A (human, UniProt P47871 26-136, limits assumed)
T8 construct: expressed in 293XP cells
T8 chain: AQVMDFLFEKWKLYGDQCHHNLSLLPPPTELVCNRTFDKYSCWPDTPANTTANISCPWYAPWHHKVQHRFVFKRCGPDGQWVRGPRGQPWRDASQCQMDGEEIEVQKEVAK
Description: as §1, §2

[9] = biological target: T9, GCGR extracellular domain alanine mutant W87A (human, UniProt P47871 26-136, limits assumed)
T9 construct: expressed in 293XP cells
T9 chain: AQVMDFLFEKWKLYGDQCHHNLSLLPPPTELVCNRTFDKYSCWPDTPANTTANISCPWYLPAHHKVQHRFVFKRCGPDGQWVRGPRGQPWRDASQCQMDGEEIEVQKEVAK
Description: as §1, §2

[10] = biological target: T10, wild-type GCGR extracellular domain expressed in 293XP cells (human, UniProt P47871 26-136, limits assumed)
T10 construct: transfected into 293XP cells; also called WT GCGR
Description: as §1, §2

[11] = biological target: T11, GCGR extracellular domain alanine mutant K90A (human, UniProt P47871 26-136, limits assumed)
T11 construct: expressed in 293XP cells
T11 chain: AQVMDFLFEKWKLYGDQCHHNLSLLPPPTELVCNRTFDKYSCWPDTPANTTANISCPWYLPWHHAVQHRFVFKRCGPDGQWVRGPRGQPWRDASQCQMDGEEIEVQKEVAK
Description: as §1, §2

[12] = biological target: T12, GCGR extracellular domain alanine mutant P110A (human, UniProt P47871 26-136, limits assumed)
T12 construct: expressed in 293XP cells
T12 chain: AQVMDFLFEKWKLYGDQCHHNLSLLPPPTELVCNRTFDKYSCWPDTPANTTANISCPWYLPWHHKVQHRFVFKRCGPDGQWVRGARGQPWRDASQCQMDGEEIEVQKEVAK
Description: as §1, §2

[13] = biological target: T13, GCGR extracellular domain alanine mutant K64A (human, UniProt P47871 26-136, limits assumed)
T13 construct: expressed in 293XP cells
T13 chain: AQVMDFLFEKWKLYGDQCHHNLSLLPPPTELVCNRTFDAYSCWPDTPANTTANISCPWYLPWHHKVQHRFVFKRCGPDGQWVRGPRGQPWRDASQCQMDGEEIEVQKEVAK
Description: as §1, §2

B1: anti-GCGR antibody Hz6B5 (antibody, V domains shown)
VH: QVQLVQSGAEVKKPGSSVKVSCKASGFTFTNHWLGWVRQAPGQGLEWIGDIYPGGYYINYNEKFKGRVTITADESTSTAYMELSSLRSEDTAVYYCARHTNYGSDYWGQGTTVTVSS
VL: DVVMTQSPLSLPVTLGQPASISCRSSQSIVDSYGNTFLEWYQQRPGQSPRLLIYKVSNRLSGVPDRFSGSGSGTDFTLKISRVEAEDVGVYYCFQGSHVPWTFGQGTKLEIK
notes: Humanized 6B5
[1]
  % positive cells: 71.8%
[2]
  % positive cells: 0%
[3]
  % positive cells: 82.2%
[4]
  % positive cells: 60.8%
[5]
  % positive cells: 85.9%
[6]
  % positive cells: 65.8%
[7]
  % positive cells: 84.3%
[8]
  % positive cells: 11.7%
[9]
  % positive cells: 74.7%
[10]
  % positive cells: 87.8%
[11]
  % positive cells: 83%
[12]
  % positive cells: 84.7%
[13]
  % positive cells: 87.6%
